Molecular target: human IL-2Rαβγ (human) (UniProt P01589)
Assay: cell-based or functional assay

Chain of human IL-2Rαβγ (human) (P01589 22-272, chain 1 of 3): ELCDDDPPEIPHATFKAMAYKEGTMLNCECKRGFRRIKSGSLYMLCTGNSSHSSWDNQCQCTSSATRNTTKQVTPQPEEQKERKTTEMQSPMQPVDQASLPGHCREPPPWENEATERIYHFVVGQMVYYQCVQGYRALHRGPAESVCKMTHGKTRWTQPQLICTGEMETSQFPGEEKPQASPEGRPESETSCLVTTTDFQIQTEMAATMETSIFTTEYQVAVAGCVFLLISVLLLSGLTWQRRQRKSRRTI
Chain of human IL-2Rαβγ (human) (P14784 27-551, chain 2 of 3, further chain): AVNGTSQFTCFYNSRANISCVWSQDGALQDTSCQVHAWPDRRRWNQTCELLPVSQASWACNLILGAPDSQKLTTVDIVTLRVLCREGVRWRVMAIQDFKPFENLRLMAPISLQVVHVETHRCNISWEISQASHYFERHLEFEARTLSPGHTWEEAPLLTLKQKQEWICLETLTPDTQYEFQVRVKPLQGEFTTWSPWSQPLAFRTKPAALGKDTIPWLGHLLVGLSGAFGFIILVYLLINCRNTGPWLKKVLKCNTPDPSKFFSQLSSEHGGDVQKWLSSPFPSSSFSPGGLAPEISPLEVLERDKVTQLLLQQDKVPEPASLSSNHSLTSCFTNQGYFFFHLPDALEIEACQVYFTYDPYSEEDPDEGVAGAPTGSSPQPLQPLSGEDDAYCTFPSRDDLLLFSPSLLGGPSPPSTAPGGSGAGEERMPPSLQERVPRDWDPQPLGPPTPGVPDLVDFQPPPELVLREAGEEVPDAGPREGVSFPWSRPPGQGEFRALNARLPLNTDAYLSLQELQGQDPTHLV
Chain of human IL-2Rαβγ (human) (P31785 23-369, chain 3 of 3, further chain): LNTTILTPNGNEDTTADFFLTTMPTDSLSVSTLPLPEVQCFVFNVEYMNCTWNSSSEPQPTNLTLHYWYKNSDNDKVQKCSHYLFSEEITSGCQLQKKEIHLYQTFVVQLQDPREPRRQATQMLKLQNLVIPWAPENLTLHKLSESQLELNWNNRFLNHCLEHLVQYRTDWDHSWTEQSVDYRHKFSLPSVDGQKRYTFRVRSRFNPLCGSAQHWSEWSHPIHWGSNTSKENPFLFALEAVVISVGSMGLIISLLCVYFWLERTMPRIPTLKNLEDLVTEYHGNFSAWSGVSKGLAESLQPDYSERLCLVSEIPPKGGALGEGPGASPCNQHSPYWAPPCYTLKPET
Chain of 8His-S4(oAzZK) (P60568 other isoform, or with tags, fused parts or gaps): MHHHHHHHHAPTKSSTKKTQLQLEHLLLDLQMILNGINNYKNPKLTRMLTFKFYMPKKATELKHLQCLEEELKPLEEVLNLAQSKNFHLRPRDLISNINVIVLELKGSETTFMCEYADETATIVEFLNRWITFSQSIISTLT

- Standardized EC50 ratio value: < 5
Substance: 8His-S4(oAzZK) (from UniProt P60568 25-153) (ligand)

Source: patent US20210060169A1
